2 substances from US20190382483A1 can be followed below.

Experiment [1] has as its target hSIRPa-His recombinant protein (Sino Biologicals, reference 11612-H08H) (human) (UniProt P78324). Nature of the experiment: Biacore (SPR).
Experiment [2] addresses Recombinant hSIRPg-His (Sino Biologicals, reference 11828-H08H) (human) (UniProt Q9P1W8). Nature of the experiment: Blitz (BLI); no antibody. The following applies: Fc fusion.
The target is the same in experiment [3]. The experiment is described as follows: Blitz (BLI); SIRPg pre-incubated with Kwar23. To be noted: Fc fusion.
For experiment [4] the target is unchanged. Nature of the experiment: Blitz (BLI); SIRPg pre-incubated with SIRP29. To be noted: Fc fusion.

Chain of human CD47Fc (Sino Biologicals, reference 12283-H02H) (Q08722 19-139): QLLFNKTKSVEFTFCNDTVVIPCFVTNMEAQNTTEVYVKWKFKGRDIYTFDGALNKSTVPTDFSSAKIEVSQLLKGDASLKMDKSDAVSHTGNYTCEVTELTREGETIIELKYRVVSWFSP
Chain of Recombinant hSIRPg-His (Sino Biologicals, reference 11828-H08H) (human) (Q9P1W8 29-360): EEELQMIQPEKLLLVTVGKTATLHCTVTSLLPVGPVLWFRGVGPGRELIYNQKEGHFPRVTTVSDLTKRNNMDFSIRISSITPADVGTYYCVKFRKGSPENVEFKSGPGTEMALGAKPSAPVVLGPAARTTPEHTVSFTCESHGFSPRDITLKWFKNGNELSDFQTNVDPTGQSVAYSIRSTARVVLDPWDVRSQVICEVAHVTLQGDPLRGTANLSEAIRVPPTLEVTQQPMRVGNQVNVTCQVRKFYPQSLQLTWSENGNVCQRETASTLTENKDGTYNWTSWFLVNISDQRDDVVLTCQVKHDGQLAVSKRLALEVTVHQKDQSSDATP
Chain of hSIRPa-His recombinant protein (Sino Biologicals, reference 11612-H08H) (human) (P78324 31-370): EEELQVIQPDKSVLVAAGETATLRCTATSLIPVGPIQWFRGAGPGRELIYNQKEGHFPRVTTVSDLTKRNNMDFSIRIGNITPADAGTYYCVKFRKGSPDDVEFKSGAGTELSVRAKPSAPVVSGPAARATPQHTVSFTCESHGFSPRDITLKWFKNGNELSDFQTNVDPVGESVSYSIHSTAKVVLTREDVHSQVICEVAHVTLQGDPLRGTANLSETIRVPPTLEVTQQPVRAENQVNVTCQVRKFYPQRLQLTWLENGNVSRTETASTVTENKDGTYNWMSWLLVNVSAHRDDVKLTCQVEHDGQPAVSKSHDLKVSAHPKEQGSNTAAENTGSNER

With Kwar23, the Kd (as a rule, a measure of binding affinity in units of concentration) in experiment [1] is 0.367 nM.
As for “human CD47Fc (Sino Biologicals, reference 12283-H02H) (from UniProt Q08722 19-139)”, the Kd in experiment [2] was 597 nM; in experiment [3], 288000 nM; in experiment [4] it was 2570 nM.
